In the supplement of paper PMC12042874:
± gives the uncertainty stated by the source.

Assay: amyloid nucleation score (Sup35N fusion, yeast selection) (log enrichment); library NNK1; higher = more nucleation; inactive = no reads after selection
How it was run: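 Random libraries were run with three technical output replicates. In each, psi-negative yeast expressing Sup35N fused to peptides of 20 random codons were induced 24 hours with 100 μM copper sulfate and grown 7 days at 30°C on medium lacking adenine and uracil, and input and output plasmid inserts were Illumina-sequenced. The nucleation score is the DiMSum log enrichment of output over input reads, centred on the mode score of non-aggregating sequences, and sequences under 100 input reads were excluded.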

Substance	amyloid nucleation score
TNISSTGFAIYWLCN	7.16 ± 0.049
SMGLYRDLRLKCFC	1.02 ± 0.47
HSRRCYNESS	1.7 ± 0.55
QYPRFHVTGTGRLCGSRMSY	-0.382 ± 0.4
FCCCNRLYQGRELWVKLVNR	4.94 ± 0.06
MLLEFCKCGVGSIVWCQKFA	4.94 ± 0.11
SRGLNFVIVTFYCDLLQG	-0.881 ± 1.6
NVIGSGE	1.08 ± 0.51
ISFPSSDYGGGSAPVEGWLG	0.47 ± 1.2
PLPVNPYPTHATIGWPRISG	-0.427 ± 0.55
FTRWLSFKTYG	-0.283 ± 0.66
LVFANSHGFCGKSSLLRVGD	inactive
FVVSLECTTRRVGLGALC	inactive
RYSLFIVSYCDGHRSSTRNM	inactive
SMMKRVTAVVNVFYRFDIKA	inactive
YYESRNWSILFRLINMF	-0.078 ± 0.46
LPDNSIYRYLSY	0.149 ± 0.42
MIPKNFLGGNPLQRRESPIC	0.828 ± 0.62
WCRDIPWMVLNTVGRY	-0.547 ± 0.63
SSYSYSDLRTRYIRITSQLD	0.203 ± 0.47
HYDLWCLMFFLVSMMSVNCH	0.972 ± 0.54
LILFLASV	1.35 ± 0.27
TNGNGFIRRFTRAYFFT	-0.338 ± 0.5
YTVVLEKTKVMYTVAPPRSL	-1.04 ± 2.4
ASIYMLRFMDLT	-0.244 ± 0.71

Substance	amyloid nucleation score
HELMLQILGLAFLLGMFAGV	-0.747 ± 0.63
SLCGTS	-0.222 ± 0.46
HWLFWCQR	inactive
LTVIVFIMEATIDYYGGRCG	0.959 ± 0.92
KFRMCEFSGAYTYGVFKNLP	0.834 ± 0.26
CVLSNRNFNYVAYTYKLQYP	1.19 ± 0.32
LWKLLAAGVGNMCDD	-0.503 ± 0.38
GNSYLILNGRSYSRIFARSS	inactive
FLINGISSLCGLVVGLKFMD	0.755 ± 0.34
GLGFTGWF	0.708 ± 0.73
TFMHARDYDMNS	-0.666 ± 0.86
ERITIFVSVRTGKLRYLWPT	-0.837 ± 2.4
AWILRWKEIPMEYSLSS	0.202 ± 0.56
DPYMNWIVLYSGVRHWNGVM	0.056 ± 1.4
WCCWVMCV	6.726 ± 0.061
LCGEGRFLQTWRSLSFP	-0.865 ± 0.39
RFFPDNNCMQCDATAEDTGL	-0.246 ± 1.4
KGLGGFLSICNSVVVRQVWR	0.098 ± 0.72
LFNILASFSYFAFYYLLLLS	-0.492 ± 0.8
RYCVGLVRICLKLGVREICS	1.01 ± 0.97
GGNKPCG	2.11 ± 0.57
GSMDCLYVSYLGNYENRYRG	0.232 ± 0.79
LHSPDFDLYYVLRILACDTQ	-0.866 ± 1.7
MCILTRRFGLMGWNTHYKS	-0.525 ± 0.94
EGRTWRGSRRGLHLDSPRMC	0.438 ± 0.95

Substance	amyloid nucleation score
WRHATSEMCFEGMLKCKVVT	0.903 ± 0.57
GDKSFSYCSLCCLFWARLPR	5.83 ± 0.064
TFKSTLFSYFPGPQEHARGR	1.93 ± 0.25
DCDRYNGLCHLCCIQWHL	1.56 ± 0.33
GFVSAKLIPCAVLQKGLLPV	0.313 ± 0.51
NCYLLFFCRLSSLSYAYQVY	-0.815 ± 1.2
ISTPIDDPKCLGSLVYFHQM	-0.693 ± 0.53
LGYIVRFQCMYTRRYCSCPD	-1.47 ± 2.7
HNCCDEVCGSNSGLFFRFMN	0.979 ± 0.65
ILYGRIR	inactive
YRLILVANVQMDHWES	-0.38 ± 0.44
SVMGVSWFLFLDYGDSINFR	0.521 ± 0.36
IACCVRSVECGRGCQLRGLA	0.217 ± 0.83
LSMKNQDTCTFTCVLSHLSL	1.9 ± 0.23
LSHGSIQMVYPELR	-0.829 ± 1.6
WIFTREQAFFSDRCLAASSK	0.649 ± 0.76
YYFRHMLKDNHLVIV	inactive
KVFVSALCC	4.19 ± 0.067
WMKVARMYRMESRIMNRRQW	1.13 ± 0.84
GTSSRNLAFLVPWMVYMRVR	0.635 ± 0.41
QYRHTQSYRLELKVHGDFKR	-0.171 ± 1.1
FGSMLNGVRYQ	0.747 ± 0.66
YLVMRMMVLRMAKPKIVGRD	5.524 ± 0.051
SSDEFVDGSLIWYHLFSPCR	-0.744 ± 0.41
GITLSIAFLKAYLCRSKGGS	2.62 ± 0.14

Substance	amyloid nucleation score
LPKKDNHSSTNA	-1.77 ± 2.4
LSRHGKVKCKLLATGGLT	0.184 ± 0.45
MAVFSIDRVVPVVTGGCIAE	0.035 ± 0.46
SEVSISGVVYFDHREVVEV	-0.165 ± 1.4
LNNLCNGMGGL	-0.78 ± 0.53
MSSNMLSEKWASGTEHVGVV	-0.657 ± 0.69
MSMLLDSDCLRYFSQEVFWV	-0.742 ± 1.4
EDAWGIIEEIIGWRGCGRLA	-0.84 ± 0.74
AQFFVLSSLW	-0.085 ± 0.93
FYVVRGHGHCWM	0.68 ± 0.33
FLMGSYMFTTTVQISHDLMW	-0.354 ± 0.61
LDRFVYY	1.41 ± 0.69
GGYIDPLS	inactive
EDFLYMCFRLSFVIIH	3.42 ± 0.12
PRLLLGAHQSYLGACSAGYM	1.06 ± 0.71
IYNGWQIRGNVNMMLCVCEW	6.568 ± 0.059
VFKGQMVVPPIYVYLVSWMG	-1.06 ± 1.7
VLTVAGF	-0.561 ± 0.44
REITCR	-0.24 ± 0.26
RLASRCLLALGMEWLIPMER	2.6 ± 0.11
RMGNLEKCKEPGVVNRWLGI	-0.507 ± 0.52
TMTSPVGWETSSFRRMDR	0.796 ± 0.52
LSEWNPSLVCMERTLHCS	0.493 ± 0.25
TYLRPWPFTVLLIWRRYSCL	0.244 ± 0.81
WSNADEFGPD	-0.256 ± 0.51

Substance	amyloid nucleation score
TKIKYGDKSPKHYYMAS	-0.174 ± 0.6
CTPVT	0.887 ± 1
YSLLY	-0.652 ± 0.66
TWARRFYATRVTTCLNQRVL	0.416 ± 0.81
YSTLRGFNYVFLKYIVK	0.724 ± 0.54
ADGWFQFWRGKYFGGRFQFT	-0.166 ± 0.61
DEGRSTQSVVCLVMEVNSDR	0.411 ± 0.48
FVYLVHLLMNGRVIKLFRDM	-0.372 ± 0.27
HSWGRKVF	-1.1 ± 0.47
ANLDQCYIMEWGSTESSKL	0.302 ± 1
GRVLDGRILLPVILSVWGCS	-0.563 ± 1.1
LISYRYFFCHRECVLVIGSN	0.327 ± 0.6
ISALGF	1.98 ± 0.72
GILYQV	-0.403 ± 0.29
RLGTSAMRCQP	0.038 ± 0.78
RWCWWFFSSYAFFRSNISWV	-0.197 ± 0.42
ANAELVYNRLFRSTNPLGCV	inactive
NLSLRLFVSLSLIMTVMRVP	-0.127 ± 0.4
LNGIFNNPY	-0.512 ± 0.78
IKYLSYDVNPPLWFVYNFSF	6.29 ± 0.084
GTTLDYWRVMEMSGDFTSFC	-0.073 ± 0.68
TGYGSDNCI	inactive
SIFRTKTTFLRNVQLEWLGG	-0.211 ± 0.86
VYINVYHYWRFSKKYVGKLL	0.318 ± 0.17
FFLPILGPW	-0.729 ± 1.7

Substance	amyloid nucleation score
VVLWLVDFPSPCPELKNLHF	inactive
WGYDTHLLMNLRNVCIGFLR	-0.431 ± 0.7
TVVIDSFLCRLQNGVDLGS	inactive
YTGSL	-0.498 ± 0.63
NDWRCSKGLLGFWRGGTRQA	0.48 ± 0.28
VDSSRRDVCDGDT	0.104 ± 0.48
PSCRC	inactive
DHFPARKVGCTILTCMMQKL	0.697 ± 0.63
DLIQLGLGQVSDPLGTWWSG	2.29 ± 0.3
IIFCMVFDSVSDDVLYITSK	-0.941 ± 0.99
MYYCD	-0.35 ± 0.54
VFLIDLLLTMCFFLYGAFLV	0.76 ± 1.1
NVTCSHPGFFYSIVKTYMFR	-0.877 ± 1.9
SCVAVSNNMILPRVSGLFEG	2.55 ± 0.15
SYTYCLVVG	0.157 ± 1.4
SHREMPSPIGMVSSSFMRVT	0.539 ± 0.9
SSPIGSSSFTMGCGWREQ	0.599 ± 0.88
VANQNHLSCDIMSSARCERH	0.244 ± 0.65
DLLYERTYRSVVISLRTLAG	0.816 ± 0.92
FHALGCK	-0.38 ± 0.41
YKWGWAVYHIGHGCRVWRWT	1.49 ± 0.4
SEKRR	0.075 ± 0.26
SCNWDRNVLDMFFLN	inactive
YVGSDLFYRCQKNKYHRHSL	-0.215 ± 0.97
IEVGIVGNLS	inactive

Substance	amyloid nucleation score
TIQPRRWYVYSKQFLWNLCC	1.35 ± 0.14
EMCFGLFGKLVWCETWLVKA	0.344 ± 0.32
VHVLWLWQSMLLVHWSAV	1.29 ± 0.93
KTRSNMNFHCS	0.195 ± 0.6
NCFLCSVARNNYVLRCPSSN	6.07 ± 0.067
ENMGELCA	inactive
IILWAWCKTGGDGIPSGVVL	0.342 ± 0.23
VRGLWFYN	0.088 ± 0.72
WFGLTALGDTFYGLYFCKKL	-0.848 ± 0.78
GGHHVSPVCLEWNNLRWDI	0.897 ± 0.78
WLNRMFFGDLCDMAIWKMCM	-0.217 ± 0.72
VTMLRSFMHELHSGLKKDLK	2.06 ± 0.11
FFIKE	-0.067 ± 0.48
ASRMFMSFLYYSMLLWLLNV	-1.66 ± 0.85
QSAYRSR	inactive
NNLTVLIWVMPMDRI	1.99 ± 0.39
TVSIPKPILFCEFYFRYADM	-1.67 ± 0.73
VHDVWEGFICGLPKYRGRLM	0.026 ± 0.75
VWYFISTYCWDRPKVILSGV	-1.39 ± 1.9
SMFNQRWWVSPVVYGLIVWP	1.33 ± 0.79
LRRPVRSTLNGMRMSQHTRR	-0.164 ± 0.66
FSRFWISSKHT	-1.33 ± 1.3
